B1: MutL^WT (Escherichia coli MutL protein, wild type) [Escherichia coli] / MutS [not stated] (parent)
chain 1: MPIQVLPPQLANQIAAGEVVERPASVVKELVENSLDAGATRIDIDIERGGAKLIRIRDNGCGIKKDELALALARHATSKIASLDDLEAIISLGFRGEALASISSVSRLTLTSRTAEQQEAWQAYAEGRDMNVTVKPAAHPVGTTLEVLDLFYNTPARRKFLRTEKTEFNHIDEIIRRIALARFDVTINLSHNGKIVRQYRAVPEGGQKERRLGAICGTAFLEQALAIEWQHGDLTLRGWVADPNHTTPALAEIQYCYVNGRMMRDRLINHAIRQACEDKLGADQQPAFVLYLEIDPHQVDVNVHPAKHEVRFHQSRLVHDFIYQGVLSVLQQQLETPLPLDDEPQPAPRSIPENRVAAGRNHFAEPAAREPVAPRYTPAPASGSRPAAPWPNAQPGYQKQQGEVYRQLLQTPAPMQKLKAPEPQEPALAANSQSFGRVLTIVHSDCALLERDGNISLLSLPVAERWLRQAQLTPGEAPVCAQPLLIPLRLKVSAEEKSALEKAQSALAELGIDFQSDAQHVTIRAVPLPLRQQNLQILIPELIGYLAKQSVFEPGNIAQWIARNLMSEHAQWSMAQAITLLADVERLCPQLVKTPPGGLLQSVDLHPAIKALKDE
chain 2: MSAIENFDAHTPMMQQYLRLKAQHPEILLFYRMGDFYELFYDDAKRASQLLDISLTKRGASAGEPIPMAGIPYHAVENYLAKLVNQGESVAICEQIGDPATSKGPVERKVVRIVTPGTISDEALLQERQDNLLAAIWQDSKGFGYATLDISSGRFRLSEPADRETMAAELQRTNPAELLYAEDFAEMSLIEGRRGLRRRPLWEFEIDTARQQLNLQFGTRDLVGFGVENAPRGLCAAGCLLQYAKDTQRTTLPHIRSITMEREQDSIIMDAATRRNLEITQNLAGGAENTLASVLDCTVTPMGSRMLKRWLHMPVRDTRVLLERQQTIGALQDFTAGLQPVLRQVGDLERILARLALRTARPRDLARMRHAFQQLPELRAQLETVDSAPVQALREKMGEFAELRDLLERAIIDTPPVLVRDGGVIASGYNEELDEWRALADGATDYLERLEVRERERTGLDTLKVGFNAVHGYYIQISRGQSHLAPINYMRRQTLKNAERYIIPELKEYEDKVLTSKGKALALEKQLYEELFDLLLPHLEALQQSASALAELDVLVNLAERAYTLNYTCPTFIDKPGIRITEGRHPVVEQVLNEPFIANPLNLSPQRRMLIITGPNMGGKSTYMRQTALIALMAYIGSYVPAQKVEIGPIDRIFTRVGAADDLASGRSTFMVEMTETANILHNATEYSLVLMDEIGRGTSTYDGLSLAWACAENLANKIKALTLFATHYFELTQLPEKMEGVANVHLDALEHGDTIAFMHSVQDGAASKSYGLAVAALAGVPKEVIKRARQKLRELESISPNAAATQVDGTQMSLLSVPEETSPAVEALENLDPDSLTPRQALEWIYRLKSLV

Variants of: B1
Experiment: BLI
Details: with MutS, 100 nM MutS, end-blocked DNA substrate with a single mismatch, read off a plot; for response: top green curve (taken as 150 nM MutL), peak at about 200 s, parent: 3.3

koff (19 nM MutL, parent: 0.0053)	koff (37 nM MutL, parent: 0.0032)	koff (75 nM MutL, parent: 0.0031)	koff (150 nM MutL, parent: 0.0033)	response	Variant
0.006 s⁻¹	0.0046 s⁻¹	0.0036 s⁻¹	0.0038 s⁻¹	2.7 nm	chain 1 H319A
0.0063 s⁻¹	0.0047 s⁻¹	0.0038 s⁻¹	0.0035 s⁻¹	2.7 nm	chain 1 H270A
0.0096 s⁻¹	0.0092 s⁻¹	0.0082 s⁻¹	0.0075 s⁻¹	2.1 nm	chain 1 H270A H319A

— PMC9226502
